In patent US9005614B2, “PRLR-specific antibody and uses thereof” (Novartis AG, priority 2006, dated 2015):
Positions count from the first letter of the chain named. Each block holds one molecule with its values, some of them ahead of it.

Columns and labels:
Cyno PRLR = molecular target: T1, Cyno PRLR (Macaca fascicularis, UniProt A0A2K5WXK1); assay: Cross species affinity analysis on covalently immobilized antibodies; type: binding, cynomolgus; conditions: Table 11, Cyno; covalently immobilized antibody; in 1/s
T1 construct: antibodies against human and cynomolgus PRLR ECD
T1 sequence (A0A2K5WXK1 25-234): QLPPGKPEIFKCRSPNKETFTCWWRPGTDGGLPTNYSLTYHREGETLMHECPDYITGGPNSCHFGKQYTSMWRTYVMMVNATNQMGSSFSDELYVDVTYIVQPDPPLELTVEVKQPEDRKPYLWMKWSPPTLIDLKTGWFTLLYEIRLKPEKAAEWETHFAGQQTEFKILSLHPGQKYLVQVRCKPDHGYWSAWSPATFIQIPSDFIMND
Description: (§1) In order to compare rat and mouse cross reactivity using covalently immobilized antibodies, a CM4 chip was coupled with he.06.642-2 and he.06.275-4 antibodies via standard EDC-NHS amine coupling chemistries according to the recommended protocol from BIACORE® Inc. The PRLR ECD injections were performed at five concentrations in a three fold titration series starting at 111 nM and going down to 1.37 nM. Regeneration was performed with Glycine pH3.0. The affinity of all of the HE variants of XHA.06.642 and XHA.06.275 are very similar to the affinity of the parental chimeric antibody. […] Antibody he.06.275-4 binds to Cyno PRLR with 5 fold weaker affinity than Human PRLR.

Rat PRLR = molecular target: T2, Rat PRLR (Rattus norvegicus, UniProt P05710); assay: as above; type: binding; conditions: for binding to Rat PRLR (in words): compared with human PRLR
T2 sequence (P05710 20-229 limits assumed): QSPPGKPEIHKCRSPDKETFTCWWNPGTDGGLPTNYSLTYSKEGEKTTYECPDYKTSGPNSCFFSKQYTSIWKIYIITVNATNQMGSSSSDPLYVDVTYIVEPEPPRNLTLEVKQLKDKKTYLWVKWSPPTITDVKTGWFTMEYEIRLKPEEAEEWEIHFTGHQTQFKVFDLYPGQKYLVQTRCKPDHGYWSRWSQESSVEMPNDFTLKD
Description: as §1

Mouse PRLR = molecular target: T3, Mouse PRLR (Mus musculus, UniProt Q08501); assay: as above; type: binding; conditions: for binding to Mouse PRLR (in words): compared with human PRLR
T3 sequence (Q08501 20-229 limits assumed): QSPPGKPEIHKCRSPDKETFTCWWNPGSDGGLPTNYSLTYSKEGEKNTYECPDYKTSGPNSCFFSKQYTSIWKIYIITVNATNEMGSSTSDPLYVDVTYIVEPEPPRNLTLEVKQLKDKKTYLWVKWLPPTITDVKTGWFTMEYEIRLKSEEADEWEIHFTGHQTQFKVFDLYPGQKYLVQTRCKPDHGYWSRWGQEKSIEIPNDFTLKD
Description: as §1

Human PRLR = molecular target: T4, Human PRLR (Homo sapiens, UniProt P16471); assay: as above; type: binding; conditions: Table 11, Human; covalently immobilized antibody; in 1/s
T4 construct: His6 (C); made in house; host or cells: Tn5 insect cells, baculovirus
T4 sequence (P16471 25-234): T1 sequence (A0A2K5WXK1 25-234) with V76I, T110A, M125I, T158I, I207T
Description: as §1

cynomolgus PRLR ECD = molecular target: T5, cynomolgus PRLR ECD (Macaca fascicularis, UniProt A0A2K5WXK1); assay: Biacore kinetic titration, antibody captured on Protein A/G; type: binding; conditions: Table 9, Cyno PRLR ECD; unit not given
T5 construct: antibodies against human and cynomolgus PRLR ECD
T5 sequence (A0A2K5WXK1 25-234): T1 sequence (A0A2K5WXK1 25-234)
Description: (§2) Affinity of the chimerized and HUMAN ENGINEERED™ antibodies determined by Biacore analysis. Briefly, a CM5 sensor chip (Biacore) immobilized with Protein A/G (Pierce) via NHS/EDC was used to capture approximately 600 RU of antibody on the chip surface. Five concentrations of PRLR ECD beginning at 5 ug/mL (185 nM) and serially diluted at 5× dilution to 0.3 nM were injected from lowest to highest concentration in the kinetic titration injection mode, and 15 minutes of dissociation data was collected. The experiments were double-referenced, i.e. an adjacent flow cell response was subtracted automatically, and the response from a buffer injection experiment was subtracted from the experimental data set. Kinetic and derived parameters (ka, kd and KD) were determined by fitting to a 1:1 Langmuir model using BiaEval software customized to the kinetic titration injection mode. Affinity measurements of both chimeric and all HUMAN ENGINEERED™ antibodies against human and cynomolgus PRLR ECD are summarized in Table 9 and Table 10.

human PRLR ECD = molecular target: T6, human PRLR ECD (Homo sapiens, UniProt P16471); assay: as above; type: binding; conditions: Table 9, Human PRLR ECD; unit not given
T6 construct: His6 (C); made in house; host or cells: Tn5 insect cells, baculovirus
T6 sequence (P16471 25-234): T1 sequence (A0A2K5WXK1 25-234) with V76I, T110A, M125I, T158I, I207T
Description: as §2

[1] = Solubility in PBS and aggregation state by size exclusion chromatography; type: physicochemical
Description: Elution of the major peak was by […] glycine pH 3.5. Pooled material was dialyzed into PBS and concentrated in centrifugal concentrators with a nominal molecular weight cut-off of 30 kD. Final purities were >95% and overall yields were approximately 60%. The final pools were assayed for endotoxin using an Endosafe PTS LAL unit (Charles River) or the QCL-1000 Chromogenic LAL Endpoint Assay (Lonza), and the results were <0.05 EU/mg (below the limit of detection) for all the antibodies. Aggregation state of the chimeric antibody he.06.642-2 was determined to be monomeric by SEC on a Superdex 200 10/300 GL column (GE Healthcare).

[2] = test system: PRL-induced phospho-PRLR and phospho-Stat5; assay: PRL-induced PRLR and STAT5 phosphorylation in T47D cells by Western blot; type: cell-based, human; conditions: for agonism: induction of PRLR signaling by antibody alone: T47D cells treated with mAb alone; for block of PRL-induced signaling (phospho-PRLR, phospho-Stat5): T47D cells, 1 or 10 ug/ml mAb, then PRL 50 ng/ml 30 min
Description: Cells were pre-treated with 1 ug/ml mAb prior to 30 min stimulation with 50 ng/ml PRL. Lysates were analyzed for the presence of phospho-PRLR using antibodies specific for phosphotyrosine residues 546 and 611 of the PRLR.
T47D cells were incubated with 1 or 10 ug/ml mAb, then treated with or without PRL (50 ng/ml) for an additional 30 min.
The ability of selected antibodies to inhibit PRL-induced phosphorylation of STAT5 and AKT was determined as follows. Cells were seeded overnight in 6 well plates at a density of 3×10^5 cells/ml in phenol red-free RPMI/10% FBS. The following day, media was replaced with serum-free RPMI for 30 min. In some experiments, anti-PRLR or non-specific control antibodies were incubated with cells during this serum starvation period. 50 ng/ml PRL was then added to wells for 30 min, after which cells were rinsed once in PBS and lysed in a buffer consisting of 50 mM Tris-HCl, pH7.5, 150 mM NaCl, 1 mM EDTA, 1% NP-40, 1 mM Na3OV4, 50 mM NaF, 0.25% deoxycholate and protease inhibitors. Tubes were spun down at 14,000 rpm in a refrigerated microfuge and lysates were quantitated using BCA reagents. 30 μg of whole cell lysate was separated by 10% SDS-PAGE and proteins were detected using phospho-specific antibodies for STAT5A/B (Y694/Y699, Upstate) or PRLR (Y546/Y611, in-house) and ECL. Equal protein loading was determined by staining with antibodies specific for total STAT5 (BD) or PRLR (Zymed) or AKT (Cell Signalling). Results of a representative assay of effect of a PRLR-specific antibody on PRLR intracellular phosphorylation are shown in FIG. 6.
Chimeric mAbs were analyzed for their ability to inhibit the proliferation and survival of BaF/PRLR cells [FIG. 11]. […] In order to assess the PRLR signal-neutralizing capability of the chimeric antibodies in a human breast cancer model, T47D cells were treated with 1 ug/ml mAb for 30 min prior to PRL stimulation. At the same time, additional cell samples were incubated with antibody alone to examine any potential agonism gained through chimerization of the antibody candidates.
Antibodies were assessed in target modulation and cell proliferation assays. FIG. 16 depicts the effect of 2 concentrations of chXHA.06.642 and HUMAN ENGINEERED™ antibodies he.06.642-1 and he.06.642-2, on PRL-induced Stat5 phosphorylation in T47D cells. […] Similar results were found for chXHA.06.275 variants.

koff (Cyno PRLR): 8.2E−04 | binding to Rat PRLR (in words) (Rat PRLR): does not bind effectively | Murine KD/Human KD (Mouse PRLR): Murine KD/Human KD = 13,548 | binding to Mouse PRLR (in words) (Mouse PRLR): does not bind effectively | koff (Human PRLR): 4.5E−04 | ka (cynomolgus PRLR ECD): 3.6E+05 | kd (cynomolgus PRLR ECD): 6.0E−04 | ka (human PRLR ECD): 6.2E+05 | kd (human PRLR ECD): 3.2E−04
B1: he.06.275-4: HUMAN-ENGINEERED antibody from XHA.06.275; variable regions SEQ ID NO: 92 and SEQ ID NO: 94 by order of listing (antibody, V domains shown)
VH: QVQLQESGPGLVKPSQTLSLTCTVSGYSITSDYAWNWIRQFPGKGLEWMGYISYSGSTSYNPSLKSRITISRDTSKNQFSLQLNSVTAADTAVYFCARDYGYVFDYWGQGTTLTVSS
VL: DVQITQSPSSLSASPGDRITLTCRASKNIYKYLAWYQEKPGKANKLLIYSGSTLHSGIPSRFSGSGSGTDFTLTISSLQPEDFAMYYCQQHNDYPYTFGQGTKLEIK

koff (Cyno PRLR): 6.0E−03 | Rat KD/Human KD (Rat PRLR): Rat KD/Human KD = 0.75 | koff (Rat PRLR; Table 11, Rat, covalently immobilized antibody, in 1/s): 1.4E−04 | binding to Rat PRLR (in words) (Rat PRLR): equivalent affinity | Murine KD/Human KD (Mouse PRLR): Murine KD/Human KD = 1 | koff (Mouse PRLR; Table 11, Murin, covalently immobilized antibody, in 1/s): 3.1E−04 | binding to Mouse PRLR (in words) (Mouse PRLR): equivalent affinity | koff (Human PRLR): 9.1E−04 | ka (cynomolgus PRLR ECD): 1.8E+05 | kd (cynomolgus PRLR ECD): 8.3E−03 | ka (human PRLR ECD): 1.7E+05 | kd (human PRLR ECD): 5.3E−04
B2: he.06.642-2: HUMAN-ENGINEERED antibody from XHA.06.642; variable regions SEQ ID NO: 88 and SEQ ID NO: 90 by order of listing (antibody, V domains shown)
VH: EVQLVESGGGLVQPGGSLRLSCAVSGFTFSSYGMSWVRQAPGKGLEWVATVSSGGTYTYYPDSVKGRFTISRDNSKNTLYLQMNSLRAEDTAVYYCARHRGNYYATYYYAMDYWGQGTLVTVSS
VL: DIVLTQSPDSLAVSLGERATINCKASKSVSTSGYTYMHWYQQKPGQPPKLLIYLASNRESGVPDRFSGSGSGTDFTLTISPVQAEDVATYYCQHSGELPPSFGQGTKLEIK
aggregation state by size exclusion chromatography [1]: monomeric | agonism: induction of PRLR signaling by antibody alone [2]: neither antibody displayed any agonistic activity | block of PRL-induced signaling (phospho-PRLR, phospho-Stat5) [2]: complete p-Stat5 signal abrogation

ka (cynomolgus PRLR ECD): 1.2E+05 | kd (cynomolgus PRLR ECD): 3.8E−03 | ka (human PRLR ECD): 1.7E+05 | kd (human PRLR ECD): 3.5E−04
B3: he.06.642-1: HUMAN-ENGINEERED antibody from XHA.06.642; variable regions SEQ ID NO: 88 and SEQ ID NO: 89 by order of listing (antibody, V domains shown)
VH: B2 VH with G44R, V93M
VL: B2 VL
agonism: induction of PRLR signaling by antibody alone [2]: neither antibody displayed any agonistic activity | block of PRL-induced signaling (phospho-PRLR, phospho-Stat5) [2]: complete p-Stat5 signal abrogation
